Assays:
[1] = biological target: HLA-A*01:01; experiment: IEDB peptide-MHC binding, purified MHC/direct/fluorescence; filed as Kd, often an IC50 or EC50 that approximates it; ≥ and ≤ were set here for values at or beyond the usual limits of such assays
[2] = biological target: HLA-A*02:11; experiment: as above
[3] = biological target: HLA-A*03:01; experiment: as above
[4] = biological target: HLA-A*11:01; experiment: as above
[5] = biological target: HLA-A*24:02; experiment: as above
[6] = biological target: HLA-B*07:02; experiment: as above
[7] = biological target: HLA-B*08:01; experiment: as above
[8] = biological target: HLA-B*15:01; experiment: as above
[9] = biological target: HLA-B*18:01; experiment: as above
[10] = biological target: HLA-B*27:05; experiment: as above
[11] = biological target: HLA-B*40:01; experiment: as above
[12] = biological target: HLA-B*44:02; experiment: as above
[13] = biological target: HLA-B*58:01; experiment: as above
[14] = biological target: HLA-C*12:03; experiment: as above
[15] = biological target: HLA-B*46:01; experiment: IEDB peptide-MHC binding, purified MHC/competitive/fluorescence; filed as Kd, often an IC50 or EC50 that approximates it; ≥ and ≤ were set here for values at or beyond the usual limits of such assays; conditions: source organism: Influenza A virus (A/swine/Italy/1521/98(H1N2))
[16] = biological target: HLA-C*06:02; experiment: IEDB peptide-MHC binding, purified MHC/direct/fluorescence; filed as Kd, often an IC50 or EC50 that approximates it; ≥ and ≤ were set here for values at or beyond the usual limits of such assays
[17] = biological target: HLA-A*02:01; experiment: as above
[18] = biological target: HLA-A*31:01; experiment: as above
[19] = biological target: HLA-A*69:01; experiment: as above
[20] = biological target: HLA-A*02:19; experiment: IEDB peptide-MHC binding, purified MHC/competitive/fluorescence; filed as Kd, often an IC50 or EC50 that approximates it; ≥ and ≤ were set here for values at or beyond the usual limits of such assays; conditions: source organism: Bacillus licheniformis
[21] = biological target: HLA-B*15:01; experiment: as above; conditions: source organism: Bacillus cereus G9241
[22] = biological target: HLA-B*35:01; experiment: as above; conditions: source organism: Bacillus cereus G9241
[23] = biological target: HLA-B*46:01; experiment: IEDB peptide-MHC binding, purified MHC/direct/fluorescence; filed as Kd, often an IC50 or EC50 that approximates it; ≥ and ≤ were set here for values at or beyond the usual limits of such assays
[24] = biological target: HLA-C*05:01; experiment: as above; conditions: source organism: Giardia intestinalis
[25] = biological target: HLA-A*02:01; experiment: IEDB peptide-MHC binding, purified MHC/competitive/fluorescence; ≥ and ≤ were set here for values at or beyond the usual limits of such assays; conditions: source organism: Zaire ebolavirus
[26] = biological target: HLA-A*24:02; experiment: as above; conditions: source organism: Zaire ebolavirus
[27] = biological target: HLA-A*02:12; experiment: IEDB peptide-MHC binding, purified MHC/direct/fluorescence; filed as Kd, often an IC50 or EC50 that approximates it; ≥ and ≤ were set here for values at or beyond the usual limits of such assays
[28] = biological target: HLA-A*24:03; experiment: as above; conditions: source organism: Zaire ebolavirus
[29] = biological target: HLA-A*29:02; experiment: as above; conditions: source organism: Zaire ebolavirus
[30] = biological target: HLA-A*68:02; experiment: as above
[31] = biological target: HLA-B*39:01; experiment: as above; conditions: source organism: Zaire ebolavirus
[32] = biological target: HLA-B*57:01; experiment: as above
[33] = biological target: HLA-A*26:01; experiment: IEDB peptide-MHC binding, purified MHC/competitive/fluorescence; filed as Kd, often an IC50 or EC50 that approximates it; ≥ and ≤ were set here for values at or beyond the usual limits of such assays
[34] = biological target: HLA-B*15:17; experiment: as above
[35] = biological target: HLA-B*27:03; experiment: as above
[36] = biological target: HLA-B*51:01; experiment: as above
[37] = biological target: HLA-B*48:01; experiment: IEDB peptide-MHC binding, purified MHC/direct/fluorescence; filed as Kd, often an IC50 or EC50 that approximates it; ≥ and ≤ were set here for values at or beyond the usual limits of such assays; conditions: source organism: Orthohantavirus hantanense
[38] = biological target: HLA-B*39:01; experiment: IEDB peptide-MHC binding, purified MHC/competitive/fluorescence; filed as Kd, often an IC50 or EC50 that approximates it; ≥ and ≤ were set here for values at or beyond the usual limits of such assays; conditions: source organism: Hantaan virus 76-118
[39] = biological target: HLA-A*23:01; experiment: IEDB peptide-MHC binding, purified MHC/direct/fluorescence; filed as Kd, often an IC50 or EC50 that approximates it; ≥ and ≤ were set here for values at or beyond the usual limits of such assays; conditions: source organism: Dengue virus 1 Singapore/S275/1990
[40] = biological target: HLA-A*02:01; experiment: IEDB peptide-MHC binding, purified MHC/competitive/fluorescence; filed as Kd, often an IC50 or EC50 that approximates it; ≥ and ≤ were set here for values at or beyond the usual limits of such assays; conditions: source organism: Vibrio cholerae
[41] = biological target: HLA-A*02:12; experiment: as above; conditions: source organism: Vibrio cholerae
[42] = source organism: Influenza A virus (A/duck/Mongolia/47/2001(H7N1))
[43] = source organism: Influenza A virus (A/Puerto Rico/8/34/Mount Sinai(H1N1))
[44] = source organism: Mycobacterium tuberculosis variant bovis BCG str. Pasteur 1173P2
[45] = source organism: Bacillus licheniformis
[46] = source organism: Giardia lamblia ATCC 50803
[47] = source organism: Zaire ebolavirus
[48] = source organism: Orthohantavirus hantanense
[49] = source organism: Limestone Canyon virus
[50] = source organism: Hantaan virus 76-118

Question: With FLKDVMESM as the sequence, how does the Kd [1, 42] read?
Answer: ≥ 20 µM

Question: And the Kd ([2]; source organism: Influenza A virus H3N2)?
Answer: ≤ 0.001 µM

Question: What about the Kd [3, 42] of the same sequence?
Answer: ≥ 20 µM

Question: What about the Kd [4, 42] of the same sequence?
Answer: ≥ 20 µM

Question: What about the Kd [5, 42] of the same sequence?
Answer: ≥ 20 µM

Question: What about the Kd [6, 43] of the same sequence?
Answer: 0.312 µM

Question: What about the Kd [7, 43] of the same sequence?
Answer: 0.158 µM

Question: And the Kd [8, 43]?
Answer: 220 nM

Question: And the Kd [9, 42]?
Answer: ≥ 20 µM

Question: What about the Kd [10, 42] of the same sequence?
Answer: ≥ 20 µM

Question: What about the Kd [11, 42] of the same sequence?
Answer: ≥ 20 µM

Question: And the Kd [12, 42]?
Answer: ≥ 20 µM

Question: And the Kd [13, 42]?
Answer: ≥ 20 µM

Question: What about the Kd ([14]; source organism: Influenza A virus (A/swine/Italy/1521/98(H1N2))) of the same sequence?
Answer: ≤ 1 nM

Question: And the Kd [15]?
Answer: 23.9 nM

Question: For YTWNGTQWV, which Kd [16, 44] is on record?
Answer: 343 nM

Question: Which Kd [17, 45] does the source give for RLIWSHHHI here?
Answer: 1.21 µM

Question: What about the Kd [18, 45] of the same sequence?
Answer: 0.462 µM

Question: What about the Kd [19, 45] of the same sequence?
Answer: 1.26 µM

Question: And the Kd [6, 45]?
Answer: 12 µM

Question: What about the Kd [8, 45] of the same sequence?
Answer: 296 nM

Question: And the Kd [13, 45]?
Answer: 0.0247 µM

Question: And the Kd [20]?
Answer: 87.9 nM

Question: With YAKFARITL as the sequence, how does the Kd [14, 44] read?
Answer: ≤ 1 nM

Question: For FVHDSVQYF, which Kd ([16]; source organism: Bacillus cereus G9241) is on record?
Answer: 133 nM

Question: What about the Kd [21] of the same sequence?
Answer: 28.9 nM

Question: And the Kd [22]?
Answer: 0.9 nM

Question: Which Kd [1, 46] does the source give for WSDLNTTDF here?
Answer: 0.156 µM

Question: And the Kd [17, 46]?
Answer: ≥ 20 µM

Question: What about the Kd [3, 46] of the same sequence?
Answer: ≥ 20 µM

Question: What about the Kd [4, 46] of the same sequence?
Answer: ≥ 20 µM

Question: And the Kd [5, 46]?
Answer: ≥ 20 µM

Question: What about the Kd [18, 46] of the same sequence?
Answer: ≥ 20 µM

Question: What about the Kd [6, 46] of the same sequence?
Answer: ≥ 20 µM

Question: And the Kd [8, 46]?
Answer: ≥ 20000 nM

Question: What about the Kd [10, 46] of the same sequence?
Answer: ≥ 20 µM

Question: What about the Kd [11, 46] of the same sequence?
Answer: ≥ 20 µM

Question: What about the Kd [12, 46] of the same sequence?
Answer: ≥ 20 µM

Question: And the Kd [23, 46]?
Answer: ≥ 20 µM

Question: What about the Kd [13, 46] of the same sequence?
Answer: ≥ 20 µM

Question: And the Kd [24]?
Answer: ≤ 1 nM

Question: How did the IC50 [25] turn out when GHMMVIFRL was run?
Answer: 205 nM

Question: What about the IC50 [26] of the same sequence?
Answer: 190 nM

Question: What about the Kd [1, 47] of the same sequence?
Answer: ≥ 20 µM

Question: What about the Kd [17, 47] of the same sequence?
Answer: ≥ 20 µM

Question: And the Kd [2, 47]?
Answer: ≥ 20 µM

Question: And the Kd [27, 47]?
Answer: ≥ 20 µM

Question: What about the Kd [3, 47] of the same sequence?
Answer: ≥ 20 µM

Question: And the Kd [28]?
Answer: ≥ 20 µM

Question: And the Kd [29]?
Answer: ≥ 20 µM

Question: What about the Kd [18, 47] of the same sequence?
Answer: ≥ 20 µM

Question: And the Kd [30, 47]?
Answer: ≥ 20 µM

Question: And the Kd [19, 47]?
Answer: ≥ 20 µM

Question: And the Kd [6, 47]?
Answer: ≥ 20 µM

Question: What about the Kd [8, 47] of the same sequence?
Answer: ≥ 20000 nM

Question: And the Kd [9, 47]?
Answer: ≥ 20 µM

Question: And the Kd [10, 47]?
Answer: ≥ 20 µM

Question: What about the Kd [31] of the same sequence?
Answer: 86.7 nM

Question: What about the Kd [11, 47] of the same sequence?
Answer: ≥ 20 µM

Question: What about the Kd [12, 47] of the same sequence?
Answer: ≥ 20 µM

Question: And the Kd [23, 47]?
Answer: ≥ 20 µM

Question: And the Kd [32, 47]?
Answer: ≥ 20 µM

Question: And the Kd [13, 47]?
Answer: ≥ 20 µM

Question: What about the Kd [33, 47] of the same sequence?
Answer: ≥ 20 µM

Question: What about the Kd [34, 47] of the same sequence?
Answer: ≥ 20 µM

Question: And the Kd [35, 47]?
Answer: ≥ 20 µM

Question: What about the Kd [36, 47] of the same sequence?
Answer: ≥ 20 µM

Question: How did the Kd [1, 48] turn out when IRKPKHLYV was run?
Answer: ≥ 20 µM

Question: What about the Kd [17, 48] of the same sequence?
Answer: ≥ 20 µM

Question: And the Kd [2, 49]?
Answer: ≥ 20 µM

Question: And the Kd [27, 49]?
Answer: ≥ 20 µM

Question: What about the Kd [3, 48] of the same sequence?
Answer: ≥ 20 µM

Question: What about the Kd [4, 48] of the same sequence?
Answer: ≥ 20 µM

Question: What about the Kd [18, 48] of the same sequence?
Answer: ≥ 20 µM

Question: What about the Kd [30, 49] of the same sequence?
Answer: ≥ 20 µM

Question: And the Kd [19, 48]?
Answer: ≥ 20 µM

Question: What about the Kd [6, 48] of the same sequence?
Answer: ≥ 20 µM

Question: What about the Kd ([7]; source organism: Hantavirus CRF367) of the same sequence?
Answer: 14 µM

Question: And the Kd [8, 48]?
Answer: ≥ 20000 nM

Question: What about the Kd [9, 48] of the same sequence?
Answer: ≥ 20 µM

Question: And the Kd [10, 48]?
Answer: ≥ 20 µM

Question: What about the Kd [11, 48] of the same sequence?
Answer: ≥ 20 µM

Question: And the Kd [12, 48]?
Answer: ≥ 20 µM

Question: And the Kd [23, 48]?
Answer: ≥ 20 µM

Question: And the Kd [37]?
Answer: ≥ 20 µM

Question: And the Kd [32, 48]?
Answer: ≥ 20 µM

Question: What about the Kd [13, 48] of the same sequence?
Answer: ≥ 20 µM

Question: And the Kd [16, 50]?
Answer: 31 nM

Question: What about the Kd [33, 50] of the same sequence?
Answer: ≥ 20 µM

Question: And the Kd [34, 50]?
Answer: ≥ 20 µM

Question: And the Kd [35, 50]?
Answer: ≥ 20 µM

Question: And the Kd [38]?
Answer: ≥ 20 µM

Question: And the Kd [36, 50]?
Answer: ≥ 20 µM

Question: What does the source list for GFMNEDHWF?
Answer: Kd [39]: 46 nM; Kd ([5]; source organism: Dengue virus 1 Singapore/S275/1990): 0.09 µM

Question: With NLNFDQAAL as the sequence, how does the Kd [40] read?
Answer: 96.7 nM

Question: And the Kd [41]?
Answer: 82.8 nM

From the Immune Epitope Database (IEDB)
